Experimental data from US6500431B1, “Inhibitors of angiogenesis and tumor growth” (University of Southern California, priority 1998, dated 2002).
“Also recorded” adds a separate entry of the source.

Columns and labels:
KS cell lines = assay: Activity of recombinant Prosaposin chains on growth of KS cell lines; type: cell-based; conditions: FIG. 1
Excerpt: In order to determine whether recombinant Saposin B has anti-angiogenic activity, the coding region of each of the Prosaposin chains was amplified from fibroblast cell lines and cloned into both bacterial (pGEX-KG) and eukaryotic (pcDNA 3.1His A) expression vectors.
The PCR products were digested with the respective restriction enzymes and the restriction products were inserted into the pGEX-KG vector for bacterial expression. pGEX-KG vector comprises a glutathione S transferase (GST)-tag at the […] of the insertion site so that a GST-fusion protein is expressed. The GST-tag is used to aid in purification of the recombinant protein. After elution from a glutathione-Sepharose 4B column, the GST-tagged proteins were incubated with thrombin (4 μg/ml) for 4 hr at room temperature (22-25° C.) in 50 mM Tris, pH 8.3, 3 mM CaCl2, 150 mM NaCl to cleave GST from the fusion protein. Free GST was removed from the preparation by passing the digested fusion protein through the glutathione-Sepharose 4B column.
(§1) By SDS-PAGE, the bacterial product was smaller than the eukaryotic protein. Because prokaryotically expressed proteins are not glycosylated, the difference in molecular weights probably represents the presence of carbohydrate in the eukaryotic protein. Recombinant proteins were then tested in KS, endothelial and control cell lines. Activity was found only in KS cell lines and endothelial cells.

[1] = test system: chicken allantoic membrane (CAM); assay: Chicken allantoic membrane (CAM) angiogenesis assay; type: in vivo; conditions: induced by VEGF or bFGF; 48 hours
Method: In order to test anti-angiogenic activity, chicken allantoic membrane (CAM) assays were performed with recombinant Saposin B. Ten day old fertilized chicken eggs were prepared for assay by creating a window in the egg shell, and placing filter paper discs saturated with VEGF or bFGF as positive controls, test compounds, or carrier buffer (negative controls) on the allantoic membrane. The membranes were harvested after 48 hours and analyzed using an Olympus stereomicroscope. The number of branching blood vessels that infiltrated under the discs were counted and photographed. Eight CAMs were studied for test group, and the experiments were repeated at least twice.

KS Y-1 cells = assay: KS cell migration assay, fibronectin-coated transwell; type: cell-based; conditions: chemotaxis induced by VEGF or bFGF
Method: (§2) The assays were done in double chamber wells separated by […] membrane. Chemotaxis was induced by bFGF (25 ng/mL) in the lower chamber. Endothelial cells or KS cells (5×10^4/mL) were placed in the upper chamber in the presence and absence of test polypeptides. Taxol at 10 ng/mL was used as a known inhibitor of migration. Cell migration across the membrane was quantitated after an overnight incubation.
Angiogenesis is mediated by complex biochemical processes including degradation of the basement membrane under existing blood vessel endothelial cells, followed by proliferation and migration of endothelial cells, followed by formation of capillary loops, and recruitment of vascular smooth muscle cells to encase the newly formed vessels and provide stability. KS and endothelial cell migration in the presence of Saposin B was studied in transwell culture plates with 8 μm pore membranes (Costar, Cambridge, Mass.).
Briefly, wells were coated with fibronectin (25 μg/mL) overnight, and endothelial cells or KS cells were plated in the upper chamber with 100 μL of DMEM/0.4% FCS. 500 μL of DMEM/0.4% FCS was added to the lower chamber and incubated at 37° C. for one hour. The test polypeptides, at various concentrations, were added to the upper chamber, and chemotactic agents (VEGF or bFGF at 20 ng/mL) were added to the lower cell-culture chambers. The plates were incubated for 5 hr at 37° C. and the cells crossing the fibronectin-coated membrane were counted after wiping the cells off the membrane in the upper chamber with a cotton swab.
The cells that traversed the membrane were fixed with Diff-Quik stain according to the manufacturer's instruction (Dade Diagnostics Inc., Aguada, PR). The cells were counted under a microscope at 320× in four randomly selected fields. The experiments were done in duplicate and repeated at least three times.

KS Y-1 tumor = assay: Established KS tumors in mice; type: in vivo
Method: FIG. 5: Effect of two daily doses of Saposin B on growth of an established KS Y-1 tumor. The arrow marks initiation of daily subcutaneous dosing.
In further experiments, KS tumors were allowed to grow for five days before treatment with Saposin B (1 and 5 mg/kg daily at a distal site from the timor). In control mice, tumors grew to a weight of 555±mg. […] Tumors excised at the conclusion of the experiments were also examined for apoptosis, blood vesel density, andmitotic index. […] Thus, contrary to the results in vitro, Saposin B has an inhibitory effect against non-KS tumors.

endothelial cells = assay: Endothelial cell migration assay, fibronectin-coated transwell; type: cell-based; conditions: chemotaxis induced by VEGF or bFGF
Method: as §2
Angiogenesis is mediated by complex biochemical processes including degradation of the basement membrane under existing blood vessel endothelial cells, followed by proliferation and migration of endothelial cells, followed by formation of capillary loops, and recruitment of vascular smooth muscle cells to encase the newly formed vessels and provide stability. […]
Briefly, wells were coated with fibronectin (25 μg/mL) overnight, and endothelial cells or KS cells were plated in the upper chamber with 100 μL of DMEM/0.4% FCS. […] The plates were incubated for 5 hr at 37° C. and the cells crossing the fibronectin-coated membrane were counted after wiping the cells off the membrane in the upper chamber with a cotton swab.
The cells that traversed the membrane were fixed with Diff-Quik stain according to the manufacturer's instruction (Dade Diagnostics Inc., Aguada, PR). The cells were counted under a microscope at 320× in four randomly selected fields. […]

[2] = test system: CD34+ cord blood derived cells; assay: Viability of CD34+ cord blood derived cells; type: cell-based, human
Excerpt: However in the presence of Saposin B, CD34^+/Flk-1^+ progenitor […] was inhibited.
Saposin B was found not to be toxic to most CD34^+ cord blood derived cells, since the difference in viability of Saposin B treated CD34^+ cells was only around 20% when compared to control cells. Thus Saposin B not only targets fully differentiated and activated endothelial cells, but also a circulating progenitor, previously shown to target angiogenic sites.

[3] = test system: Lewis lung carcinoma, melanoma (B16), T-cell lymphoma (EL-4), KS Y-1; assay: Syngeneic tumors in C57BL/6 mice, KS Y-1 in nude mice; type: in vivo; conditions: 2.5 mg/kg the day following implantation; two weeks
Method: FIG. 4: Inhibition of tumor growth in mice. C57BL/6 mice were implanted with Lewis lung carcinoma, melanoma (B16), and T-cell lymphoma (EL4). KS Y-1 was implanted in nude mice as a positive control. One day after implantation 2.5 mg/kg of Saposin B was injected into the mice subcutaneously.
To determine whether this anti-tumor effect was reproducible with different classes of syngeneic tumors, C57BL/6 mice were implanted with Lewis lung carcinoma, melanoma (B16), and T-cell lymphoma (EL-4) cell lines. KS Y-1 was implanted into nude mice for a positive control. The day following tumor implantation, 2.5 mg/kg of Saposin B was administered intraperitoneally. Tumor size was measured three times a week for two weeks at which time the mice were sacrificed for analysis. […] See, FIG. 4

[4] = test system: endothelial cells (HUVEC); assay: Growth inhibition of endothelial cells; type: cell-based
Method: FIG. 1D: Activity of n-terminus decapeptide (DVCQDCIQMV; SEQ ID NO 21).
FIG. 1E: Activity of N-terminus pentapeptide (DVCQC; SEQ ID NO: 28).
as §1

B1: Saposin B: polypeptide fragment of Prosaposin (positions 190 to 269), SEQ ID NO:2; recombinantly expressed (protein)
chain: GDVCQDCIQMVTDIQTAVRTNSTFVQALVEHVKEECDRLGPGMADICKNYISQYSEIAIQMMMHMQPKEICALVGFCDEVK
**Q.** For B1, which “growth inhibition of KS cells” value (KS cell lines) is on record?
**A.** Its value is “dose dependent growth inhibition”.

**Q.** What about the “angiogenesis (number of blood vessel branches) in CAMs” value [1] of the same molecule?
**A.** Its value is “effectively blocked angiogenesis; also recorded: inhibited by Saposin B in a dose-dependent fashion”.

**Q.** What about the “inhibition of KS cell migration” value (KS Y-1 cells) of the same molecule?
**A.** Its value is “compete inhibition of cell migration”.

**Q.** What about the “apoptosis in excised tumors” value (KS Y-1 tumor; 1 and 5 mg/kg daily) of the same molecule?
**A.** The value was “increase in apoptosis”.

**Q.** And the “blood vessel density in excised tumors” value (KS Y-1 tumor; 1 and 5 mg/kg daily)?
**A.** The value was “decrease in blood vessel density”.

**Q.** What about the “weights of excised tumors relative to controls” value (KS Y-1 tumor; treatment from day five, 1 and 5 mg/kg daily at a distal site) of the same molecule?
**A.** The value was “approximately 23%”.

**Q.** What about the “inhibition of endothelial cell migration” value (endothelial cells) of the same molecule?
**A.** The value was “compete inhibition of cell migration; also recorded: inhibited endothelial cell migration”.

**Q.** And the “difference in viability of treated CD34+ cells compared to control cells” value [2]?
**A.** Its value is “around 20%”.

**Q.** What about the tumor growth [3] of the same molecule?
**A.** The tumor growth was “profound inhibition of tumor growth”.

**Q.** And the “growth inhibition of endothelial cells” value ([4]; FIG. 1, 1D, 1E)?
**A.** The value was “dose dependent growth inhibition”.

**Q.** And the “growth inhibition of proliferating versus quiescent endothelial cells (HUVEC)” value ([4]; FIG. 1B)?
**A.** The value was “Only proliferating and not quiescent endothelial cells (HUVEC) show dose dependent growth inhibition”.
